Test results as given in paper PMC5428041, “Dynamic equilibrium on DNA defines transcriptional regulation of a multidrug binding transcriptional repressor, LmrR” (Scientific Reports, 2017).

Molecular target: T1, LmrR (Lactococcus lactis) (UniProt A2RI36)
T1 sequence: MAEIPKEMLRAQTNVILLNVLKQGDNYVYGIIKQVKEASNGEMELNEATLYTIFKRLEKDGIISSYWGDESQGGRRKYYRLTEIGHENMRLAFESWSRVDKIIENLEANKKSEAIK
Experiment: NMR titration
Conditions: apo; apparent Kd per base pair; DNA is a fragment pool; 10 mM NaPi pH 6.8, 100 mM NaCl, 25 C (ITC; same buffer for NMR); 5% DMSO in riboflavin titrations

sonicated E. coli genomic DNA showed a Kd of 37 µM.
